Results on four molecules are retold here after CN113683687A (EXCYTE BEIJING PHARMACEUTICAL TECH DEVELOPMENT CO LTD, dated 2021).

The target in the assay is T1, 新型冠状病毒(2019-nCoV)Spike蛋白 (全长三聚体S蛋白) (新型冠状病毒(2019-nCoV), UniProt P0DTC2 16-1213).
T1 construct: also called 病毒S蛋白
In words: Octet Blitz (BLI), scFv-Fc, apparent affinity.

B1: CS1 (Fc fusion)
VH: QVQLQQSGAEVKKPGSSVKVSCKASGGTFSSYAISWVRQAPGQGLEWMGGIIPIFGTANYAQKFQGRVTITADESTSTAYMELSSLRSEDTAVYYCARDRGVGRGYSYGFLPLDYWGQGTLVTVSS
VL: DIQMTQSPLSLPATPGEPASISCRSSQSLLHSDGYSYLHWYVQKPGQSPQLLISADSNRASGVPGRFSGSGSGTDFTLKISRVEAEDVGVYYCMQALQTPWTFGQGTKLDIK
notes: also called 抗体CS1
In the case of B1, the Kd came out at 1.2 nM.

B2: CS2 (Fc fusion)
VH: EVQLVQSGAEVKKPGASVKVSCKASGGTFSSYAISWVRQAPGQGLEWMGGIIPIFGTANYAQKFQGRVTITADESTSTAYMELSSLRSEDTAVYYCARGSGDYGMDVWGQGTTVTVSS
VL: QSALTQPASVSGSPGQSITISCTGTSSDVGGYNYVSWYQQHPGKAPKLVISEVRNRPSGVSNRFSGSKSGNTASLTISGLQAEDEADYYCSSYTTRDTRVFGGGTQLTVL
notes: also called 抗体CS2
For B2, the Kd came to 2.1 nM.

B3: CS7 (Fc fusion)
VH: EVQLVQSGAEVKKPGSSVKVSCKASGGTFSSYAISWVRQAPGQGLEWMGGIIPILGIANYAQKFQGRVTITADKSTSTAYMELSSLRSEDTAVYYCARGSGDYSMDVWGQGTLVTVSS
VL: QSALAQPASVSGSPGQSITISCTGTSSDVGGYNYVAWYQQHPGKAPKLMIYEVSNRPSGVSNRFSGSKSGNTASLTISGLQAEDEADYYCSSYTTRDTRVFGGGTKLTVL
notes: also called 抗体CS7
For the molecule B3, the Kd is 12.3 nM.

B4: CS3 (Fc fusion)
VH: EVQLVQSGAEVKKPGSSVKVSCKASGGTFSSYAISWVRQAPGQGLEWMGGIIPIFGTANYAQKFQGRVTITADKSTSTAYMELSSLRSEDTAVYYCARGSGDYGMDVWGQGTTVTVSS
VL: QSALTQPASVSGSPGQSITISCTGTSSDVGLYNYVSWYQQHPGKAPKLMVSEVSNRPSGVSNRFSGSKSGNTASLTISGLQAEDEADYYCSSYTTRDTRVFGGGTKVTVL
notes: also called 抗体CS3
In the case of B4, the Kd turned out to be 23.2 nM.
